From the supplement of paper PMC10567573

B1: RIPK4 (parent)
chain: RERMELLEEAKKMEMAKFRYILPV
B2: MTMR15 (parent)
chain: FSPDFTLRNTLKSTSEDSLVKQEC

Variants of: B1
Experiment: protein stability index of a GFP-peptide fusion (GPS, HEK-293T) (PSI 1-6); higher = more stable
Settings: c terminus: a fixed tail appended
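Further: lentivirally expressed fusions sorted by FACS into six bins by GFP to DsRed ratio, PSI derived from sequencing read proportions per bin multiplied by bin number.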

Protein stability index: each site, then its substitutions
V24: H 3.24; M 3.68; R 3.65; E 4.32; T 3.78; F 3.16; S 3.7; K 3.58

Variants of: B2
Experiment: as above
Settings: c terminus: a fixed tail appended

Protein stability index, by site and new letter:
K12: A 1.79; C 2.34; W 3.33; L 2.28; G 2.24; N 1.41; E 2.67; R 1.71; I 2.6; H 1.71; T 1.67; S 2.04
S18: Q 2.01; I 3.61; Y 2.41; D 1.76; F 1.87; A 1.75; H 1.92; G 1.76; V 1.84; W 1.75; P 2.05; M 2.37; L 2.48; K 2.17
T10: F 2.7; R 2.15; L 2.61; M 2.11; Y 2.27; H 3.86; S 1.82; G 2.03; E 2.37; V 1.76; W 2.32; D 1.99; P 1.7; I 2.64; N 1.87
R8: Y 2.44; A 2.01; V 2.14; D 2.68; G 1.79; H 1.89; F 1.89; C 2.75; E 3.28; M 1.77; I 2.88; W 2.17; Q 2.62; L 2.36; S 1.9; N 1.58; T 1.73
E16: R 1.76; C 1.98; L 1.75; D 2.54; M 2.29; K 1.75; W 2.38; T 1.57; G 1.93; A 1.67; Y 1.83; N 1.93; P 2.38; H 2.25
S13: L 1.83; E 2.11; Q 2.31; V 1.97; I 2.56; Y 2.35; W 2.66; P 2.12; M 2.02; C 2.08; D 2.02
E23: V 1.94; R 2.42; F 2.51; G 2.26; C 2.49; S 2.27; H 1.95; P 2.04; I 1.72; M 1.88; T 1.75
S2: Q 3.32; D 5; F 4.04; I 1.92; V 2.88; T 2.23; G 2.48; R 4.02; A 2.08; C 2.19; N 3.68; L 3.19; M 3.69; W 3.6; H 2.55
P3: G 2.27; I 2.44; H 3.05; D 3.91; E 3.14; N 3.08; A 1.97; K 2.26; S 2.67; T 2.76; M 1.99; Y 2.76; L 2.24; W 1.97; Q 2.83; R 1.98
Q22: Y 2.39; W 2.08; E 2.15; P 1.67; M 1.65; N 2.02; K 1.62; A 1.56; H 1.91; V 2; I 2.06; F 2.65
V20: Q 2.06; E 2.12; N 2.2; F 3.85; R 2.21; D 2.08; T 2.01; G 1.78; W 2.12; M 2.29; L 2.08; P 2.44; A 2.09
K21: H 2.83; R 3.02; V 2; C 2.69; N 2.94; P 1.86; W 2.4; F 2.06; M 2.86; A 2.81; L 2.04
L19: M 2.46; F 2.14; Y 2.24; R 2.15; I 2.5; A 1.7; S 1.97; G 2; Q 3.03; N 2.2; K 1.85; P 1.96; T 2.56; D 2.37; V 1.66
D17: N 1.8; M 2.07; L 2.36; H 2.34; V 2.06; Y 2.11; Q 2.37; S 1.45; A 1.89; T 2.22; C 1.47; I 2.58; K 1.69; E 2.12; R 1.61; G 2.03
C24: V 2.03; T 1.98; S 1.85; D 2.59; R 2.34; H 1.85; Q 2.87; E 1.69; M 2.74; F 2.63; K 1.4
N9: P 1.82; R 2.62; G 1.93; Q 1.96; L 2.02; V 2.18; E 1.72; D 1.54; F 2.7; S 2.34; T 2.09; Y 3.7; I 2.41; K 2.11
L11: N 1.94; E 2.25; V 2.26; P 2.11; A 1.57; Y 1.75; I 2.83; C 2.42; S 2.04; Q 2.06; R 1.81; T 1.81
T6: C 2.73; V 1.82; L 2.8; Y 2.46; E 3.39; M 1.92; P 1.92; A 1.72; K 2.01; H 1.45; I 3.13
S15: V 1.48; D 1.95; A 1.64; T 1.85; N 1.43; P 1.83; K 1.73; Y 1.83; E 1.82; I 1.73; R 2.34; H 1.93; F 2.63; C 2.71; L 1.96
L7: M 3.06; K 2.39; T 2.75; W 2.16; Y 2.27; A 1.99; C 2.25; H 2.15; I 2.3; F 2.04; Q 2.16; D 3.03; V 1.83; R 2.56; G 2.48
F1: D 5.25; P 5.1; C 4.17; M 4.87; N 5.19; G 5.09; Q 4.96; H 4.96; E 5.32; K 5; L 5.21; I 4.71; W 4.39; Y 2.04
T14: K 1.73; D 2.1; E 2.64; L 2; P 1.69; W 1.58; R 1.77; G 2.49; I 1.62; S 2.1; F 2.82; C 2.78; Y 1.72; M 2.05; H 1.96; A 1.54; N 2.11
F5: A 3.75; S 3.19; P 3.59; Q 3.5; E 4.83; D 4.35; H 3.52; K 3.79; M 3.62; R 3.26; T 3.17; W 3.6
D4: H 1.95; W 1.96; K 2.23; Q 1.45; T 2.07; L 1.94; I 2.05; M 1.61; G 2.65; Y 3.03; F 1.53; R 2.65; A 2.44
